The values below come from US20220002423A1 (GENERAL HOSPITAL, published 2022).

For experiment [1], the target named is T1, Amino acid residues 108-127 of human TNFR2 (human).
T1 sequence (peptide): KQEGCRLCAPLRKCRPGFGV
The experiment can be described thus: ELISA on TNFR2 peptide fragment; categorical score, 0 lowest to 4 highest affinity. (ELISA stands for enzyme-linked immunosorbent assay.)

Experiment [2] addresses T2, Amino acid residues 34-53 of human TNFR2 (human).
T2 sequence (peptide): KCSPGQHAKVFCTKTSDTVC
Described as above.

B1: agonistic TNFR2 antibody TNFRAG1 (antibody, V domains shown)
VH: EVQLQQFGAELVKPGASVKISCKASGYTFTDYNIDWVKQSHGKSLEWIGDINPNYDSTSYSQKFRGKATLTVDKSSSTAYMELRSLTSEDTAVYYCARGNSWYFDVWGAGTTVTVSS
VL: QIVLTQSPALMSASPGEKVTMTCSASSSVRYMYWYQQKPRSSPKPWIYLTSNLASGVPARFSGSGSGTSYSLTISSMEAEDAATYYCQQWSSNPLTFGAGTKLELK
notes: the primary antibodies were detected with secondary antibodies against rodent IgG; also called monoclonal TNFR2 antibody TNFRAG1; TNFR2 agonist antibody
B1: the Affinity Score in experiment [1] amounted to 2; in experiment [2], 0.
